From PMC7584627

Molecular target: LuS-N71-SpyTag (Aquifex aeolicus)
Assay: SDS-PAGE of the covalent conjugate, band intensities

Work on SARS-CoV-2 spike-SpyCatcher yielded a percent of nanoparticle subunit conjugated of 91%.
